According to publication PMC10574445, “Label-Free Homogeneous Electrochemical Aptasensor Based on Size Exclusion/Charge-Selective Permeability of Nanochannel Arrays and 2D Nanorecognitive Probe for Sensitive Detection of Alpha-Fetoprotein”:

Assays:
Settings in all cases: protein: commercial
[1] = molecular target: neutrophil gelatinase-associated lipocalin (NGAL) (UniProt P80188 21-198); assay: electrochemical aptasensor (DPV), aptamer release from graphene oxide; Ru(bpy)3 2+/Apt@GO probe; no remarkable signal change; AFP incubated with Ru(bpy)3 2+/Apt@GO at 37 °C for 1 h, DPV on VMSF/ITO; buffer, salt and pH not given in the material
Chain of neutrophil gelatinase-associated lipocalin (NGAL) (P80188 21-198): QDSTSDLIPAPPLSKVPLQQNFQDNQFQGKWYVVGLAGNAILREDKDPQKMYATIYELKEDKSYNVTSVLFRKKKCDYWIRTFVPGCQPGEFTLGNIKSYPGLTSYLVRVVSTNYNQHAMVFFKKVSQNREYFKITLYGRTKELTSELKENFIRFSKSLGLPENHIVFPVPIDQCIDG

[2] = molecular target: carcinoembryonic antigen (CEA) (UniProt P06731 35-685); assay: as above
Chain of carcinoembryonic antigen (CEA) (P06731 35-685): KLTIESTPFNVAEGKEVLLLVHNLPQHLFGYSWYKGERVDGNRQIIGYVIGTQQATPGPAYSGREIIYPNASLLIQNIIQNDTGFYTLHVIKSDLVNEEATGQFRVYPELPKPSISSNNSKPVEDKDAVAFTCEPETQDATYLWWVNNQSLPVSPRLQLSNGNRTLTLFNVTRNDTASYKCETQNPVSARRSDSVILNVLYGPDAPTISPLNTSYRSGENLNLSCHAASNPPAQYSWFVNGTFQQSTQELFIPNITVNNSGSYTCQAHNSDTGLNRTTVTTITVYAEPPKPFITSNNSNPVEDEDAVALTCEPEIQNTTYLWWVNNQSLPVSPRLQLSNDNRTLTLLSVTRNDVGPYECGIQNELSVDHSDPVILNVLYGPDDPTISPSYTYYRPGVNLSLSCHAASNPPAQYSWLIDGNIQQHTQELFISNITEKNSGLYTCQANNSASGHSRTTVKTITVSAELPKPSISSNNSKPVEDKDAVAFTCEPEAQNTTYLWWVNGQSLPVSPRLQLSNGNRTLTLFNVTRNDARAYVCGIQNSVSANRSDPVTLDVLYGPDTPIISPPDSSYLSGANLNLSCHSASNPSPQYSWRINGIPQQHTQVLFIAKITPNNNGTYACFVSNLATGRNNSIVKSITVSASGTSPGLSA

[3] = molecular target: PSA (printed as preprostate antigen) (UniProt P07288 25-261); assay: as above
Chain of PSA (printed as preprostate antigen) (P07288 25-261): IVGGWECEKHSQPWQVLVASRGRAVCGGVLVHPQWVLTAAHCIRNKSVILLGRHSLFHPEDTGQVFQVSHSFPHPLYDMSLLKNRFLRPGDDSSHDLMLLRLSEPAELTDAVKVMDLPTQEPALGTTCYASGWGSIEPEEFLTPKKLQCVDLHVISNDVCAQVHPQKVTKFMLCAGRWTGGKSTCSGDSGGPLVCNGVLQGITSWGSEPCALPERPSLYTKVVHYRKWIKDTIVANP

alpha-fetoprotein (AFP) = molecular target: T1, alpha-fetoprotein (AFP) (UniProt P02771 19-609); assay: electrochemical aptasensor (DPV), aptamer release from graphene oxide; Ru(bpy)3 2+/Apt@GO probe; linear 1 pg/mL-1000 ng/mL, LOD 0.8 pg/mL (not a Kd); AFP incubated with Ru(bpy)3 2+/Apt@GO at 37 °C for 1 h, DPV on VMSF/ITO; buffer, salt and pH not given in the material
T1 sequence: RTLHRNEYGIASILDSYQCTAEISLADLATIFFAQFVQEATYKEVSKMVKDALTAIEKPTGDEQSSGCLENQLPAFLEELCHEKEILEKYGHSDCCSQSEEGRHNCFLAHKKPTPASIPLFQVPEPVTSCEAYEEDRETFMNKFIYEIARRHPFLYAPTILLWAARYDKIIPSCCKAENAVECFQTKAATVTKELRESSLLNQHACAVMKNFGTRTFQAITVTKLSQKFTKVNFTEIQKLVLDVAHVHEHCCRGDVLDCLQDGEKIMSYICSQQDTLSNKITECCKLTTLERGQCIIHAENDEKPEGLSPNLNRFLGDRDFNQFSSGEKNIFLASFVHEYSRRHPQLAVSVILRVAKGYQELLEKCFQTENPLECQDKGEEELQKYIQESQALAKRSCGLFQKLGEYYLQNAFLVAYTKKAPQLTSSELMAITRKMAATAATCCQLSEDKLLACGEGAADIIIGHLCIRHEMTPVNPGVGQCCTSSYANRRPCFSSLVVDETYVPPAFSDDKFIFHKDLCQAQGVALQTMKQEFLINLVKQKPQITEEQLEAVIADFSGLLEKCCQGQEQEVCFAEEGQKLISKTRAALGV

## ATCAGGTGCAGTTCTCGACTCGGTCTTGATGTGGG (ssDNA) [AFP aptamer (Apt)]
[1]
  binding result: no binding
[2]
  binding result: no binding
[3]
  binding result: no binding
alpha-fetoprotein (AFP)
  binding result: binds
